Biological target: HLA-A*02:01 (Homo sapiens, UniProt P04439, D140Y/D185E/D98H/E176V/E277Q/G131W/G231S/I119V/I121R/I166T/I218V/L300P/L318F/N151K/N90K/P208A/P217A/Q86G/Q94H/R138H/R169H/T345S)
Experiment: MHC binding assay, UV-ligand exchange with β2m ELISA, HLA-A*02:01
Details: peptide exchange yield
Excerpt: (§1) Candidate peptides for T cell based therapies according to the present invention were further tested for their MHC binding capacity (affinity). The individual peptide-MHC complexes were produced by UV-ligand exchange, where a UV-sensitive peptide is cleaved upon UV-irradiation, and exchanged with the peptide of interest as analyzed. Only peptide candidates that can effectively bind and stabilize the peptide-receptive MHC molecules prevent dissociation of the MHC complexes. To determine the yield of the exchange reaction, an ELISA was performed based on the detection of the light chain (β2m) of stabilized MHC complexes. The assay was performed as generally described in Rodenko et al. (Rodenko et al., 2006).
(§2) 96 well MAXISorp plates (NUNC) were coated over night with 2 ug/ml streptavidin in PBS at room temperature, washed 4× and blocked for 1 h at 37° C. in 2% BSA containing blocking buffer. Refolded HLA-A*02:01/MLA-001 monomers served as standards, covering the range of 15-500 ng/ml. Peptide-MHC monomers of the UV-exchange reaction were diluted 100-fold in blocking buffer. Samples were incubated for 1 h at 37° C., washed four times, incubated with 2 ug/ml HRP conjugated anti-β2m for 1 h at 37° C., washed again and detected with TMB solution that is stopped with […]. Absorption was measured at 450 nm. Candidate peptides that show a high exchange yield (preferably higher than 50%, most preferred higher than 75%) are generally preferred for a generation and production of antibodies or fragments thereof, and/or T cell receptors or fragments thereof, as they show sufficient avidity to the MHC molecules and prevent dissociation of the MHC complexes.

Row | Substance | Peptide exchange
1 | 204 (FLLPKVQSIQL; listed as Homo sapiens) [compound 204] | “+++” (>50 = +++)
2 | 18 (YLLPSVVLL; listed as Homo sapiens) [compound 18] | “++++” (>75% = ++++)
3 | 17 (KAYNRVIFV; listed as Homo sapiens) [compound 17] | “+++” (>50 = +++)
4 | 206 (SLMDLQERL; listed as Homo sapiens) [compound 206] | “+++” (>50 = +++)
5 | 198 (KLLGYDVHV; listed as Homo sapiens) [compound 198] | “+++” (>50 = +++)
6 | 23 (FAFSGVLRA; listed as Homo sapiens) [compound 23] | “++” (>20% = ++)
7 | 24 (KLGPVAVSI; listed as Homo sapiens) [compound 24] | “++++” (>75% = ++++)
8 | 199 (AMPDSPAEV; listed as Homo sapiens) [compound 199] | “++++” (>75% = ++++)
9 | 207 (KLSDNILKL; listed as Homo sapiens) [compound 207] | “++++” (>75% = ++++)
10 | 21 (FLFDKLLLI; listed as Homo sapiens) [compound 21] | “++++” (>75% = ++++)
11 | 25 (YLNEKSLQL; listed as Homo sapiens) [compound 25] | “++++” (>75% = ++++)

Biological target: HLA-A*24:02 (Homo sapiens, UniProt P04439, D101N/D140Y/D185E/E176V/E190D/F33S/G103R/G107R/I119L/I121M/I306V/K335N/L105A/L180Q/L300P/N151K/N90K/Q86E/Q94H/R106L/R138H/R89G/T104I/T345S/V100E/W191G/Y123F)
Experiment: MHC binding assay, UV-ligand exchange with β2m ELISA, HLA-A*24:02
Details: peptide exchange yield
Excerpt: as §1, §2

Row | Substance | Peptide exchange
12 | 74 (SYADNILSF; listed as Homo sapiens) [compound 74] | “++++” (>75% = ++++)
13 | 68 (LYQDRFDYL; listed as Homo sapiens) [compound 68] | “++++” (>75% = ++++)
14 | 72 (TYVENLRLL; listed as Homo sapiens) [compound 72] | “+++” (>50 = +++)
15 | 61 (IFKEHNFSF; listed as Homo sapiens) [compound 61] | “++++” (>75% = ++++)
16 | 56 (KYSSGFRNI; listed as Homo sapiens) [compound 56] | “+++” (>50 = +++)
17 | 58 (KYLADLPTL; listed as Homo sapiens) [compound 58] | “++++” (>75% = ++++)
18 | 63 (IYFSNTHFF; listed as Homo sapiens) [compound 63] | “+++” (>50 = +++)
19 | 75 (RFYLLTEHF; listed as Homo sapiens) [compound 75] | “+++” (>50 = +++)
20 | 67 (VFLPSEGFNF; listed as Homo sapiens) [compound 67] | “+++” (>50 = +++)
21 | 57 (RFPPTPPLF; listed as Homo sapiens) [compound 57] | “++++” (>75% = ++++)
22 | 62 (YYLSHLERI; listed as Homo sapiens) [compound 62] | “++++” (>75% = ++++)
23 | 69 (EYNTIKDKF; listed as Homo sapiens) [compound 69] | “+++” (>50 = +++)
24 | 64 (SFQSKATVF; listed as Homo sapiens) [compound 64] | “++” (>20% = ++)
25 | 71 (RYLGKNWSF; listed as Homo sapiens) [compound 71] | “++++” (>75% = ++++)
26 | 222 (RYLDEINLL; listed as Homo sapiens) [compound 222] | “+++” (>50 = +++)
27 | 53 (KYIEYYLVL; listed as Homo sapiens) [compound 53] | “++++” (>75% = ++++)
28 | 55 (IFVARLYYF; listed as Homo sapiens) [compound 55] | “++++” (>75% = ++++)
29 | 73 (TYPQLEGFKF; listed as Homo sapiens) [compound 73] | “++++” (>75% = ++++)
30 | 70 (LYSDIGHLL; listed as Homo sapiens) [compound 70] | “+++” (>50 = +++)

Test system: CD8+ T cells
Experiment: In vitro T-cell priming assay (immunogenicity): repeated stimulation of CD8+ T cells with aAPCs loaded with peptide/MHC complexes and anti-CD28, pMHC multimer readout
Format: cell-based, human
Details: Table 10a; healthy donors; three stimulation cycles; HLA-A*02 (278), HLA-A*24 (279)
Method: In order to obtain information regarding the immunogenicity of the TUMAPs of the present invention, the inventors performed investigations using an in vitro T-cell priming assay based on repeated stimulations of CD8+ T cells with artificial antigen presenting cells (aAPCs) loaded with peptide/MHC complexes and anti-CD28 antibody. […]
Generation of pMHC/anti-CD28 coated beads, T-cell stimulations and readout was performed in a highly defined in vitro system using four different pMHC molecules per stimulation condition and 8 different pMHC molecules per readout condition. […]
Stimulations were initiated in 96-well plates by co-incubating […] CD8+ T cells with 2×10^5 washed coated beads in 200 μl TCM supplemented with 5 ng/ml IL-12 (PromoCell) for 3 days at 37° C. […] For the pMHC multimer readout using 8 different pMHC molecules per condition, a two-dimensional combinatorial coding approach was used as previously described (Andersen et al., 2012) with minor modifications encompassing coupling to 5 different fluorochromes. […] Peptide specific cells were calculated as percentage of total CD8+ cells. […] In vitro priming of specific multimer+CD8+ lymphocytes was detected by comparing to negative control stimulations.

Row | Substance | Wells positive [%]
31 | 279 (LYIDRPLPYL; listed as Homo sapiens) [compound 279] | ++++ (>=70% = ++++)
32 | 278 (YLDRKLLTL; listed as Homo sapiens) [compound 278] | ++++ (>=70% = ++++)

From patent publication US11135246B2, “Peptides and combination of peptides for use in immunotherapy against leukemias and other cancers” (Immatics Biotechnologies GmbH, priority 2017, dated 2021)
